Target: HLA-A*02:01 (Homo sapiens, UniProt P04439, D140Y/D185E/D98H/E176V/E277Q/G131W/G231S/I119V/I121R/I166T/I218V/L300P/L318F/N151K/N90K/P208A/P217A/Q86G/Q94H/R138H/R169H/T345S)
Test: MHC binding assay: UV-ligand exchange with beta2m ELISA (exchange yield)
Settings: binding to HLA-A*02:01, β2m ELISA
Outline: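 Exchange yield reflects how much β2m remains bound, measured by ELISA: streptavidin capture of 100-fold diluted monomers, HRP anti-β2m at 37° C. for 1 h, TMB read at 450 nm. Monomers come from UV cleavage of a conditional HLA-A*02:01 ligand in the presence of the candidate peptide.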

174 (ALAQYLITA; listed as Homo sapiens) [compound 174]
Peptide exchange (MHC class I binding score, peptide exchange yield): “+++” (≥50 = +++)

175 (YLFENISQL; listed as Homo sapiens) [compound 175]
Peptide exchange (MHC class I binding score, peptide exchange yield): “+++” (≥50 = +++)

176 (YLMEGSYNKVFL; listed as Homo sapiens) [compound 176]
Peptide exchange (MHC class I binding score, peptide exchange yield): “++” (≥20% = ++)

177 (YLLPEEYTSTL; listed as Homo sapiens) [compound 177]
Peptide exchange (MHC class I binding score, peptide exchange yield): “++++” (≥75% = ++++)

178 (ALTEIAFVV; listed as Homo sapiens) [compound 178]
Peptide exchange (MHC class I binding score, peptide exchange yield): “++++” (≥75% = ++++)

179 (KVLNELYTV; listed as Homo sapiens) [compound 179]
Peptide exchange (MHC class I binding score, peptide exchange yield): “+++” (≥50 = +++)

180 (FQIDPHSGLVTV; listed as Homo sapiens) [compound 180]
Peptide exchange (MHC class I binding score, peptide exchange yield): “++” (≥20% = ++)

181 (LLWAGTAFQV; listed as Homo sapiens) [compound 181]
Peptide exchange (MHC class I binding score, peptide exchange yield): “+++” (≥50 = +++)

182 (MLLEAPGIFL; listed as Homo sapiens) [compound 182]
Peptide exchange (MHC class I binding score, peptide exchange yield): “+++” (≥50 = +++)

183 (FGLDLVTEL; listed as Homo sapiens) [compound 183]
Peptide exchange (MHC class I binding score, peptide exchange yield): “+++” (≥50 = +++)

184 (YLMDINGKMWL; listed as Homo sapiens) [compound 184]
Peptide exchange (MHC class I binding score, peptide exchange yield): “+++” (≥50 = +++)

185 (FLIDDKGYTL; listed as Homo sapiens) [compound 185]
Peptide exchange (MHC class I binding score, peptide exchange yield): “++” (≥20% = ++)

186 (TLFFQQNAL; listed as Homo sapiens) [compound 186]
Peptide exchange (MHC class I binding score, peptide exchange yield): “++” (≥20% = ++)

187 (RQISIRGIVGV; listed as Homo sapiens) [compound 187]
Peptide exchange (MHC class I binding score, peptide exchange yield): “+++” (≥50 = +++)

188 (GLFPVTPEAV; listed as Homo sapiens) [compound 188]
Peptide exchange (MHC class I binding score, peptide exchange yield): “+++” (≥50 = +++)

189 (ALQRKLPYV; listed as Homo sapiens) [compound 189]
Peptide exchange (MHC class I binding score, peptide exchange yield): “+++” (≥50 = +++)

190 (FLSSLTETI; listed as Homo sapiens) [compound 190]
Peptide exchange (MHC class I binding score, peptide exchange yield): “+++” (≥50 = +++)

191 (LLQEGQALEYV; listed as Homo sapiens) [compound 191]
Peptide exchange (MHC class I binding score, peptide exchange yield): “++” (≥20% = ++)

192 (KMLDGASFTL; listed as Homo sapiens) [compound 192]
Peptide exchange (MHC class I binding score, peptide exchange yield): “+++” (≥50 = +++)

193 (QLLDADGFLNV; listed as Homo sapiens) [compound 193]
Peptide exchange (MHC class I binding score, peptide exchange yield): “+++” (≥50 = +++)

194 (ALPLFVITV; listed as Homo sapiens) [compound 194]
Peptide exchange (MHC class I binding score, peptide exchange yield): “+++” (≥50 = +++)

195 (GLFADLLPRL; listed as Homo sapiens) [compound 195]
Peptide exchange (MHC class I binding score, peptide exchange yield): “+++” (≥50 = +++)

196 (YLYSVEIKL; listed as Homo sapiens) [compound 196]
Peptide exchange (MHC class I binding score, peptide exchange yield): “++++” (≥75% = ++++)

197 (ALGPEGGRV; listed as Homo sapiens) [compound 197]
Peptide exchange (MHC class I binding score, peptide exchange yield): “++” (≥20% = ++)

198 (KTINKVPTV; listed as Homo sapiens) [compound 198]
Peptide exchange (MHC class I binding score, peptide exchange yield): “+++” (≥50 = +++)

200 (LLFGSVQEV; listed as Homo sapiens) [compound 200]
Peptide exchange (MHC class I binding score, peptide exchange yield): “+++” (≥50 = +++)

201 (RLVDYLEGI; listed as Homo sapiens) [compound 201]
Peptide exchange (MHC class I binding score, peptide exchange yield): “+++” (≥50 = +++)

202 (ALLDQQGSRWTL; listed as Homo sapiens) [compound 202]
Peptide exchange (MHC class I binding score, peptide exchange yield): “+++” (≥50 = +++)

204 (KIAENVEEV; listed as Homo sapiens) [compound 204]
Peptide exchange (MHC class I binding score, peptide exchange yield): “++” (≥20% = ++)

205 (SLYPGTETMGL; listed as Homo sapiens) [compound 205]
Peptide exchange (MHC class I binding score, peptide exchange yield): “+++” (≥50 = +++)

206 (VLQEGKLQKLAQL; listed as Homo sapiens) [compound 206]
Peptide exchange (MHC class I binding score, peptide exchange yield): “+++” (≥50 = +++)

207 (GLTSTNAEV; listed as Homo sapiens) [compound 207]
Peptide exchange (MHC class I binding score, peptide exchange yield): “++” (≥20% = ++)

208 (KISPVTFSV; listed as Homo sapiens) [compound 208]
Peptide exchange (MHC class I binding score, peptide exchange yield): “+++” (≥50 = +++)

209 (KLIESKHEV; listed as Homo sapiens) [compound 209]
Peptide exchange (MHC class I binding score, peptide exchange yield): “++” (≥20% = ++)

210 (LLLNAVLTV; listed as Homo sapiens) [compound 210]
Peptide exchange (MHC class I binding score, peptide exchange yield): “++” (≥20% = ++)

211 (LLWPGAALL; listed as Homo sapiens) [compound 211]
Peptide exchange (MHC class I binding score, peptide exchange yield): “++” (≥20% = ++)

212 (ALWDQDNLSV; listed as Homo sapiens) [compound 212]
Peptide exchange (MHC class I binding score, peptide exchange yield): “++” (≥20% = ++)

214 (FLLDLDPLLL; listed as Homo sapiens) [compound 214]
Peptide exchange (MHC class I binding score, peptide exchange yield): “+++” (≥50 = +++)

215 (QLINHLHAV; listed as Homo sapiens) [compound 215]
Peptide exchange (MHC class I binding score, peptide exchange yield): “+++” (≥50 = +++)

216 (NLWEDPYYL; listed as Homo sapiens) [compound 216]
Peptide exchange (MHC class I binding score, peptide exchange yield): “+++” (≥50 = +++)

217 (ALIHPVSTV; listed as Homo sapiens) [compound 217]
Peptide exchange (MHC class I binding score, peptide exchange yield): “++” (≥20% = ++)

218 (SALEELVNV; listed as Homo sapiens) [compound 218]
Peptide exchange (MHC class I binding score, peptide exchange yield): “++” (≥20% = ++)

219 (KLSDIGITV; listed as Homo sapiens) [compound 219]
Peptide exchange (MHC class I binding score, peptide exchange yield): “+++” (≥50 = +++)

220 (LLQKFVPEI; listed as Homo sapiens) [compound 220]
Peptide exchange (MHC class I binding score, peptide exchange yield): “++” (≥20% = ++)

221 (ALYEEGLLL; listed as Homo sapiens) [compound 221]
Peptide exchange (MHC class I binding score, peptide exchange yield): “++” (≥20% = ++)

222 (NLIENVQRL; listed as Homo sapiens) [compound 222]
Peptide exchange (MHC class I binding score, peptide exchange yield): “++” (≥20% = ++)

223 (ALLENIALYL; listed as Homo sapiens) [compound 223]
Peptide exchange (MHC class I binding score, peptide exchange yield): “+++” (≥50 = +++)

224 (TLIDAQWVL; listed as Homo sapiens) [compound 224]
Peptide exchange (MHC class I binding score, peptide exchange yield): “+++” (≥50 = +++)

225 (SLLKVLPAL; listed as Homo sapiens) [compound 225]
Peptide exchange (MHC class I binding score, peptide exchange yield): “+++” (≥50 = +++)

226 (MLYVVPIYL; listed as Homo sapiens) [compound 226]
Peptide exchange (MHC class I binding score, peptide exchange yield): “++” (≥20% = ++)

227 (ALMNTLLYL; listed as Homo sapiens) [compound 227]
Peptide exchange (MHC class I binding score, peptide exchange yield): “++” (≥20% = ++)

228 (AMQEYIAVV; listed as Homo sapiens) [compound 228]
Peptide exchange (MHC class I binding score, peptide exchange yield): “++” (≥20% = ++)

229 (RLPGPLGTV; listed as Homo sapiens) [compound 229]
Peptide exchange (MHC class I binding score, peptide exchange yield): “++” (≥20% = ++)

230 (ILVDWLVEV; listed as Homo sapiens) [compound 230]
Peptide exchange (MHC class I binding score, peptide exchange yield): “+” (≥10% = +)

231 (FLSPQQPPLLL; listed as Homo sapiens) [compound 231]
Peptide exchange (MHC class I binding score, peptide exchange yield): “++” (≥20% = ++)

232 (ALLEAQDVELYL; listed as Homo sapiens) [compound 232]
Peptide exchange (MHC class I binding score, peptide exchange yield): “++” (≥20% = ++)

233 (VLSETLYEL; listed as Homo sapiens) [compound 233]
Peptide exchange (MHC class I binding score, peptide exchange yield): “++” (≥20% = ++)

234 (ALMEDTGRQML; listed as Homo sapiens) [compound 234]
Peptide exchange (MHC class I binding score, peptide exchange yield): “++” (≥20% = ++)

235 (YLNDLHEVLL; listed as Homo sapiens) [compound 235]
Peptide exchange (MHC class I binding score, peptide exchange yield): “++++” (≥75% = ++++)

236 (GLLEAKVSL; listed as Homo sapiens) [compound 236]
Peptide exchange (MHC class I binding score, peptide exchange yield): “+++” (≥50 = +++)

237 (ALLEASGTLLL; listed as Homo sapiens) [compound 237]
Peptide exchange (MHC class I binding score, peptide exchange yield): “++++” (≥75% = ++++)

238 (YLISFQTHI; listed as Homo sapiens) [compound 238]
Peptide exchange (MHC class I binding score, peptide exchange yield): “+++” (≥50 = +++)

239 (AAFAGKLLSV; listed as Homo sapiens) [compound 239]
Peptide exchange (MHC class I binding score, peptide exchange yield): “+++” (≥50 = +++)

240 (ILLEQAFYL; listed as Homo sapiens) [compound 240]
Peptide exchange (MHC class I binding score, peptide exchange yield): “+++” (≥50 = +++)

241 (SLVEVNPAYSV; listed as Homo sapiens) [compound 241]
Peptide exchange (MHC class I binding score, peptide exchange yield): “+++” (≥50 = +++)

242 (AIAYILQGV; listed as Homo sapiens) [compound 242]
Peptide exchange (MHC class I binding score, peptide exchange yield): “++” (≥20% = ++)

243 (LLLNELPSV; listed as Homo sapiens) [compound 243]
Peptide exchange (MHC class I binding score, peptide exchange yield): “+++” (≥50 = +++)
